From patent publication US20010041346A1, “METHOD FOR ASSAYING COMPOUNDS AFFECTING SMOOTH MUSCLE CONTRACTILE STATE” (priority 1999, published 2001)

T1: AL9 (carboxy-terminal 181 amino acids of MBS) (Homo sapiens, UniProt O14974)
T1 construct: expressed in transfected cells; host or cells: Saccharomyces cerevisiae Y190
T1 sequence (O14974 850-1030 limits assumed): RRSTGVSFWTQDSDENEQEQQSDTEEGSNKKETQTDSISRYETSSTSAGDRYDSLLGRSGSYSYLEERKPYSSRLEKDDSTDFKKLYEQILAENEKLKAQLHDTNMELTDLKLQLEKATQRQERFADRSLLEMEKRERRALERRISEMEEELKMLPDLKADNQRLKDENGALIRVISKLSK

B1: cGK1α68-667: cGK1α mutant corresponding to amino acids 68-667 (protein, UniProt Q13976 68-667, looked up, fragment)
chain: PQTYRSFHDLRQAFRKFTKSERSKDLIKEAILDNDFMKNLELSQIQEIVDCMYPVEYGKDSCIIKEGDVGSLVYVMEDGKVEVTKEGVKLCTMGPGKVFGELAILYNCTRTATVKTLVNVKLWAIDRQCFQTIMMRTGLIKHTEYMEFLKSVPTFQSLPEEILSKLADVLEETHYENGEYIIRQGARGDTFFIISKGTVNVTREDSPSEDPVFLRTLGKGDWFGEKALQGEDVRTANVIAAEAVTCLVIDRDSFKHLIGGLDDVSNKAYEDAEAKAKYEAEAAFFANLKLSDFNIIDTLGVGGFGRVELVQLKSEESKTFAMKILKKRHIVDTRQQEHIRSEKQIMQGAHSDFIVRLYRTFKDSKYLYMLMEACLGGELWTILRDRGSFEDSTTRFYTACVVEAFAYLHSKGIIYRDLKPENLILDHRGYAKLVDFGFAKKIGFGKKTWTFCGTPEYVAPEIILNKGHDISADYWSLGILMYELLTGSPPFSGPDPMKTYNIILRGIDMIEFPKKIAKNAANLIKKLCRDNPSERLGNLKNGVKDIQKHKWFEGFNWEGLRKGTLTPPIIPSVASPTDTSNFDSFPEDNDEPPPDDNSGW
modifications: isoform alpha
B2: cGK1α68-446: cGK1α mutant corresponding to amino acids 68-446 (protein, UniProt Q13976 68-446, looked up, fragment)
chain: PQTYRSFHDLRQAFRKFTKSERSKDLIKEAILDNDFMKNLELSQIQEIVDCMYPVEYGKDSCIIKEGDVGSLVYVMEDGKVEVTKEGVKLCTMGPGKVFGELAILYNCTRTATVKTLVNVKLWAIDRQCFQTIMMRTGLIKHTEYMEFLKSVPTFQSLPEEILSKLADVLEETHYENGEYIIRQGARGDTFFIISKGTVNVTREDSPSEDPVFLRTLGKGDWFGEKALQGEDVRTANVIAAEAVTCLVIDRDSFKHLIGGLDDVSNKAYEDAEAKAKYEAEAAFFANLKLSDFNIIDTLGVGGFGRVELVQLKSEESKTFAMKILKKRHIVDTRQQEHIRSEKQIMQGAHSDFIVRLYRTFKDSKYLYMLMEACLGGEL
modifications: isoform alpha

Molecular target: T1, AL9 (carboxy-terminal 181 amino acids of MBS)
Test: Yeast two-hybrid interaction assay (HIS3 and LacZ reporter activation)
Type: binding
Conditions: yeast strain Y190
Experimental: Colonies were lifted onto NitroPure nitrocellulose filters (MSI, Westboro, Mass.) which were then submerged in liquid nitrogen for 15 seconds, placed on presoaked Whatman #5 paper (in Z buffer: 60 mM Na2HPO4.7H2O, 40 mM NaH2PO4.H2O, 10 mM KCl, 1 mM MgSO4.7H2O), 50 mM β-mercaptoethanol, pH 7.0, and incubated at 37° for up to 12 hours.
Polypeptides interacting with cGK-PC97 were detected by their ability to activate transcription of histidine (HIS3) and β-galactosidase (LacZ) reporter genes via reconstitution of the Gal4 transcription factor. MaV103 colonies capable of growing on media lacking histidine were assayed for β-galactosidase activity using the colony-lift filter assay, according to standard techniques and as described herein. PC86 plasmids (containing the activated T cell library) from His3+, LacZ+ colonies were isolated and the library cDNA insert sequenced. 2.5×10^6 clones were screened from the T cell library.
To verify the interaction of AL9 with cGK1α, individual plasmids were introduced into S. cerevisiae strain Y190 (Clontech, Palo Alto, Calif.) by the lithium acetate method and assayed for reporter gene activation, as above. Y190 was transformed with cGK1α/GalDB or GalDB alone, in combination with AL9/GalAD or GalAD alone, and plated on Sc-His (synthetic complete medium, minus histidine) and YPD (yeast extract, peptone, dextrose) plates. β-galactosidase activity assays, on colonies from the YPD plate, were also performed. […] Thus, cotransformation of AL9 and cGK1α into S. cerevisiae confirmed the interaction of full-length cGK1α with the carboxy-terminal 181 amino acids of MBS.
Yeast strain Y190 was transformed with AL9/GalAD in combination with the cGK1α/GalDB truncation mutants and plated on YPD and Sc-His plates. Colony lift β-Galactosidase assays for the yeast colonies growing on the YPD plate were also performed. […] Thus, the C-terminus of MBS (AL9) interacts with the N-terminus of cGK1α (cGK1α1-59).
Site-directed mutagenesis was employed to replace selected leucine or isoleucine residues in the N-terminus of cGKIα. cGK1α1-59 was cloned into vector pcDNA3.1 (Invitrogen, Carlsbad, Calif.) using the method of Kunkel et al. (Kunkel et al., Methods in Enzymology, 154: 367-382, 1987). Three mutants of the leucine/isoleucine zipper of cGKIα were prepared: Leu12 and Ile19 to Ala (cGKLLZ1,2A); Leu26 to Pro (cGKLZ3P); Ile33 and Leu40 to Ala (cGKLZ4,5A). All mutants were confirmed by DNA sequencing, then subcloned into vector PC97 for expression in yeast. cGKLz1,2A, GKLZ3P, and GKLZ4,5A were each cotransformed with AL9 in yeast strain Y190 , and reporter gene activation assayed as described herein.

interaction with AL9/MBS in yeast two-hybrid (HIS and β-Gal reporter activation) | Molecule
interacted with AL9 | cGK1α1-59: cGK1α truncation mutant containing amino acids 1-59, leucine/isoleucine zipper domain (MSELEEDFAKILMLKEERIKELEKRLSEKEEEIQELKRKLHKCQSVLPVPSTHIGPRTT; isoform alpha; UniProt Q13976 1-59, looked up, fragment)
failed to interact with MBS | cGKLZ1,2A: cGK1α1-59 mutant, Leu12 and Ile19 to Ala (MSELEEDFAKIAMLKEERAKELEKRLSEKEEEIQELKRKLHKCQSVLPVPSTHIGPRTT; isoform alpha; UniProt Q13976 1-59, looked up, variant L12A I19A)
failed to interact with MBS | cGKLZ3P: cGK1α1-59 mutant, Leu26 to Pro (MSELEEDFAKILMLKEERIKELEKRPSEKEEEIQELKRKLHKCQSVLPVPSTHIGPRTT; isoform alpha; UniProt Q13976 1-59, looked up, variant L26P)
weak association with MBS | cGKLZ4,5A: cGK1α1-59 mutant, Ile33 and Leu40 to Ala (MSELEEDFAKILMLKEERIKELEKRLSEKEEEAQELKRKAHKCQSVLPVPSTHIGPRTT; isoform alpha residues 1-59; UniProt Q13976 1-59, looked up, variant I33A L40A)
failed to associate with AL9 | B1
failed to associate with AL9 | B2
